Experimental data taken from PMC10148139.

Molecular target: MAGE D2 MAGE homology domain (MHD), amino acids 261–521 (human) (UniProt Q9UNF1)
Experiment: MST

Chain of UniProt Q9UNF1 (Q9UNF1 261-521): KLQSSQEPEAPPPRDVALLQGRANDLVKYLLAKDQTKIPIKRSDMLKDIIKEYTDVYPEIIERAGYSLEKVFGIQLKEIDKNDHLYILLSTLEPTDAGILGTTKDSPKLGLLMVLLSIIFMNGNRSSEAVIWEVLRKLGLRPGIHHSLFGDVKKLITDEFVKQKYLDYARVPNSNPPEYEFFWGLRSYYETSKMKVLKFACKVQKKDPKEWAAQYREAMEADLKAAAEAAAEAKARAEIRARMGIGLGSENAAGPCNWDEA

Kd: 155 nM
Substance: Gαs AHD (amino acids 68–206), purified (from UniProt P63092-2 68-206) (domain or fragment)
